Assay: yeast display, Sf9 membrane polyspecificity reagent, FACS + sequencing; frameworks hold sequencing errors
Outline: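 A nanobody's polyreactivity label depends on the gate it was sorted from. Yeast display cells were stained with 10% biotinylated, detergent-solubilized Sf9 membrane reagent for 1 hour at 4 °C, enriched on streptavidin microbeads and sorted by FACS. The low and high (top ~1%) gates were set on anti-HA fluorescence for expression and streptavidin fluorescence for reagent binding.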

| Sequence | polyreactivity (PSR sort gate) |
| --- | --- |
| QVQLVESGGGLVQAGGSLRLSCASSGSTFGPNDMGWYRQAPGKERELVAAISRSGDDTYYADSVKGRFTISRDNAKNTVYLQMNSLKPEDTAVYYCNADGRPFFLRPLRWELDYWGQGTQVTVSS | low polyreactivity |
| QVQLVESGGGLVQAGGSLRLSCASSGSTFKVYDMGWSRQAPGKERELVATITWGGGGTYYADSVTGRFTISRDNAKNTVYLLMNSLKPQDTAVYFCAAEVTLYSCYRYWYRYEYWGQGTQVTVSS | high polyreactivity |
| QVQLVESGGGLVQAGGSLRLSCASSGSTFYSYVMGWYRQAPGKERELVAAITYSGGRTYYADSVKGRFTISRDNEKNTVYFQMYSLKPEDTAVYYCAKRVFNYQRYDYWGQGTQVTVSS | high polyreactivity |
| QVQLVESGGGLVQAGGSLRLSCASSGSTFYYYAMGWYRPAPGKERELVAAITKSGGSTYYADSVKGRFTISRDNAKNTVYLQMNSLKPEVTAVYYCAAYLRSGYKFDYWGQGTQVTVSS | low polyreactivity |
| QVQLVESGGGLVQAGGSLRLSCASSGSTLRWYAMGWYRQAPGKERELVARISWTTGSTYYADSVKGRFTISRDNAKNTVYLQMNSLKPEDTAVYYCAKGKKSSRSGIYNYWGQGTQVTVSS | high polyreactivity |
| QVQLVESGGGLVQAGGSLRLSCASSGSTLYDNAKGWYRPAPGKERELVAAISKSGGRTYYADSVKGRFTISRDNAKNSVYLQMNSLKPEDTAVYYCNDVSSGGDYNYWGQGTQVTVSS | high polyreactivity |
| QVQLVESGGGLVQAGGSLRLSCASSGSTVSVNAMGWSRQAPGKESEFVASISKRGGSTYYADSVKGRFTISRDNAKNTVYLQMNSLKPEDTAVYYCARVLTGPGRLDYWGQGTQVTVSS | high polyreactivity |
| QVQLVESGGGLVQAGGSLRLSCASSGYTFIRYAIGLYRQAPGKERELVAAIRGTGTSTYYADSVKGRFTISRDNAKYTVYLQMNSLKTEDTAVYYCNKVAGRSPYTRYDYWGQGTHVTVSS | low polyreactivity |
| QVQLVESGGGLVQAGGSLRLSCASSGYTFTVYAKGWYRQAPGKERELVAAITWNGASTYYADSVKGRFTISRDNAKNTVYLQMNSLKPEDTAVYYCADPYYFYRDRYRLDYWGQGTQVTVSS | low polyreactivity |
| QVQLVESGGGLVQAGGSLRLSCATSGSIFPTYAMGSYRQAPGKERELVAAISAIVGGTYYADSVKGRFTISRDNAKNTVYLQMNSLKPEDTAVYYCNKTKFQGYDYWGQGTQVTVSS | low polyreactivity |
| QVQLVESGGGLVQAGGSLRLSCATSGSIFVFNAMGWYRQAPGKERELVAAIDTSDDITYYADSVKGRFTISRDNAKNTVYLQMISLKPEDTAVYYCNADTYGLVRYYIYHYEFDYWGQGTQVTVSS | high polyreactivity |
| QVQLVESGGGLVQAGGSLRLSCAVRRTLSFYAMGWYRQAPGKERELVATISRSGGSTYYADSVKGRFTISRDNAKNTVYLQMNSLKPEDTAVYYCAVRWKAHYWGPIYYYWGQGTQVTVSS | high polyreactivity |
| QVQLVESGGGLVQAGGSLRLSCAVSGRIFRRNVMGWYRQAPGKERELVAGISYSGDSTYYADSVKGRFTISRDNAKKTVYFQMNSLKPEDTAVYYCAAAVAHYRGMYYWGQGTQVTVSS | low polyreactivity |
| QVQLVESGGGLVQAGGSLRLSCAVSGRIFRRNVMGWYRQAPGKERELVAGISYSGDSTYYADSVKGRFTLSRDNAKITDYLQMNSLKPEDTAVYYCATRYTYSTDTGYDYWGQGTQVTVSS | low polyreactivity |
| QVQLVESGGGLVQAGGSLRLSCDASARTFYRNTMGWYRQAPGKERELVAAITRSGGSTYYADSVKGRFTISRDNAKNTVYLQINRLKPEDTAVYYCAASRTYYAPYGYWGQGTQVTVSS | high polyreactivity |
| QVQLVESGGGLVQAGGSLRLSCDASGFIIRRNAMGWYRQAPGKEREFVAAITWSGGSTYYADSVKGRFTISRDNAKNTVYLQMYSLKPEDTAVYYCAATYSQYWYTQYLNSYPGYDYWRQGTQVTVSS | low polyreactivity |
| QVQLVESGGGLVQAGGSLRLSCDASGFILSSNAMGWYRQAPGKERELVAAISSSGRTYYTDSVKGRFTISRDNAKNTVYLQMNSLKPEDTAVYYCAAGGYYYAIGYWGQGTQVTLSS | high polyreactivity |
| QVQLVESGGGLVQAGGSLRLSCDASGFTFGENAMGWYRQAPGNERELVAAISWSGTYTSYADSVKGRFTLSRDNAKNTVYLQMNSLKPEDTAVYYCATGCYAYVYPFDYWGQGTLVTVSS | low polyreactivity |
| QVQLVESGGGLVQAGGSLRLSCDASGGIFFLYAMGWYRQAPGKERELVAAITNDGRTYYADSVKGRFTISRDNAKYTVYLQMNSLKPEDTAVYYCDAAALISVGDLVIYEDDYWGQGTQVTVSS | low polyreactivity |
| QVQLVESGGGLVQAGGSLRLSCDASGIIFKYNAMGWYRQAPGKERELVAAITRRGGITYYADSVKGRFTISRDNAKNTVYLQMNSLKPEDTAVYYCAADLVYYHYYPWFYYWGQGTQVTVSS | high polyreactivity |
| QVQLVESGGGLVQAGGSLRLSCDASGIIFNTYAMGWYRQAPGKERELVAAISSSGGRTYYADSVKGRFTISRDYAKNTVYLQMNSLKPEDTAVYFCAADYRGGIRYYRGAAYNYWGQGTQVTVSS | high polyreactivity |
| QVQLVESGGGLVQAGGSLRLSCDASGITFGNYAMGWYRPAPGKDRELVAAITGSGGRTYYADSVKGRFTISRDNAKNTVYLQMNSLKPEDTAVYYCNRRQYGRKKQYDYWGQGTQVTVSS | high polyreactivity |

| Sequence | polyreactivity (PSR sort gate) |
| --- | --- |
| QVQLVESGGGLVQAGGSLRLSCDASGLIFYDNMGWYRQAPGKERELVAAISSSGGSTSYADSVKGRFTISRDNAKNTVYLQMNSLKPEDTAVYYCAAELGYIGSYYWIYYYWGQGTQGTVSS | low polyreactivity |
| QVQLVESGGGLVQAGGSLRLSCDASGLILGINSMGWYRQAPGKERELVAAISSSGGRTSYADSVKGRFTISRDNAKNTVYLQMNSLKPEDTAVYYCAKRRTTYSHYDYWGQGTQVTVSS | low polyreactivity |
| QVQLVESGGGLVQAGGSLRLSCDASGNIFKSYVMGWYRQAPGKERELVAAITWSGGSTYYADSVKGRFTISRDNAKNTVYLQMNSLKPEDTAVYYCAAYPRRYRTTYDYWGQGTQVTVSS | high polyreactivity |
| QVQLVESGGGLVQAGGSLRLSCDASGNIFYPNAMGLYRQAPGKERELVAAISSSGGSTYYADSVKGRFTISRDNAKNTVYLQMNSLKPEDTAVYYFAKDRSYAYYLWPYPTGYDYWGQGTQVTVSS | low polyreactivity |
| QVQLVESGGGLVQAGGSLRLSCDASGNTFHTNAMGWYRQAPGKERELVAAITGGGSTYYADSVKGRFTISRDNAKKTVYLQMNSLKPEDTAVYYCNTDVPYGLDVSDTIDYFYWGQGTKVTVSS | low polyreactivity |
| QVQLVESGGGLVQAGGSLRLSCDASGRIFHIYAMGWYREAPGKERELVASISWSGDSTYYADSVKGRFTISRDNAKNTVYLQINSLKPEDTAVYYFAAEGEETEGYDYDYWGQGTQVTVSS | low polyreactivity |
| QVQLVESGGGLVQAGGSLRLSCDASGRIFQYNAMGWSRQAPGKLRELVAAITVGGSTNYADSVTGRFTISRDNAKNTVYLQKNSLKPEDTAVSYCNKAWSSSWQVTYGICGQGTQVTVSS | high polyreactivity |
| QVQLVESGGGLVQAGGSLRLSCDASGRIFYRYTMGWYRQAPGKERELVAAITDDSSTDYADSVKGRFTISRDNAKNTVYLQMNSLKPEDTAVYYCNADWYWKYDYWGQGTQVTVSS | low polyreactivity |
| QVQLVESGGGLVQAGGSLRLSCDASGRIIQQYAMGWYRQAHGKERELVDAISRGGSTYYADSVKGRFTISRDNAKNTVYLQMNSLKPEDTAVYYCAVRSRRGLKYDYWGQGTQVTVSS | high polyreactivity |
| QVQLVESGGGLVQAGGSLRLSCDASGRTFFYNAMGLYRQAPGKERELVAAISKNGGNTYYADSVKGRFTISRDNAKNTVYLQMNSLKPEDTAVYYCAARQSRTGPDRNDYWGQGTQVTVSS | high polyreactivity |
| QVQLVESGGGLVQAGGSLRLSCDASGRTFKQNAMGWYRQAPGKERELVATIRNGVNTNYEDSVKGRFTISRDNAKNTVYLQMNSLKPEDTAVYYCAARYWQAHAFQGNTGYSWQYGYWGQGTQVTVSS | high polyreactivity |
| QVQLVESGGGLVQAGGSLRLSCDASGRTFVRYAMGWYRQAPGKERELVARITSRGTSTYYADSVKGRFTISRDNAKNTVYLQMNSLKPEDTAVYYCNKVRTFRDKSRYDYWGQGTQVTVSS | low polyreactivity |
| QVQLVESGGGLVQAGGSLRLSCDASGRTIRHNAMGWYRQAPGKERELVAAISKRGGRTYYADSVKGRFTISRDNAKNTVYLQMNSLKPEDTAVYYCATRSSGYSLGDYWGQGTQVTVSS | high polyreactivity |
| QVQLVESGGGLVQAGGSLRLSCDASGSIFEYYAMGWYRQAPGKERELVAAIRVSDVNTYYADSVKGRFTISRDNAKNTVYFQMNSLKPEDTAVYYCANAYKGYSDFDYWGQGTQVTVSS | high polyreactivity |
| QVQLVESGGGLVQAGGSLRLSCDASGSIFGINVMGWYRQAPGTERELVARINDGADTNYADSVKGRFTISRDNAKNTVYLQMNSLKPEDTAVYYCAKPYYDGRTHFDSWGQGTQVTVSS | low polyreactivity |
| QVQLVESGGGLVQAGGSLRLSCDASGSIFGPYARGWYRQEPGKERELVAAITWTGGRTYYADSVKGRFTISRDNAKNTVYLQMNSLQPEDTAVYYFAADYSPSTWDLYYTLYYYWGQGTQVTVSS | low polyreactivity |
| QVQLVESGGGLVQAGGSLRLSCDASGSIFQAYAIGWYRQAPGKEREFVAVITWGGGSTSYADSVKGRFTISRDNAKNTVYLQMNSLKPEDTAVYYCNADSQEWIWLYEGYDYWGQGTQVTVSS | low polyreactivity |
| QVQLVESGGGLVQAGGSLRLSCDASGSIFSTYVMGWYRQAPGKERELVAAITVSVGSTYYADSVKGRFTISRDNAKNTVYLQMNSLKPEDTAVYYCAAGSYSRYLYSLYFDFDYWGQGTQVTVSS | low polyreactivity |
| QVQLVESGGGLVQAGGSLRLSCDASGSIFYIYAMGWSRQAPGKERELVATISGSGGSTHYADSVKGRFTISRDNAKNTVYLQMNSLKPEDTAVYYCDADVLPYGYYWGQGTQVTVSS | low polyreactivity |
| QVQLVESGGGLVQAGGSLRLSCDASGSIFYRNVMGWYRQAPGKERELVAAISGRGGSTYYADSVKGRFTISRDNAKNTVYLQMNSLKPEDTAVYYCAADKGYRYISYYYWGQGTQVTVSS | high polyreactivity |
| QVQLVESGGGLVQAGGSLRLSCDASGSIIIGNSMGWYRQAPGKERELVAVINGSDGTTYYADSVKGRFTISRDNAKNTVYLQMNSLKPEDTAVYYCNADFIDPSVYDYNYWGQGTQVTVSS | low polyreactivity |

Reference: the nanobody polyreactivity screen of Harvey et al. (2022)
